Reference: paper doi:10.1101/2024.11.27.625426 (bioRxiv, 2024)
Where a chain is given by its changes, count along the chain named.

Key:
[1] = molecular target: sNAp of A/Vietnam/1203/2004 (VN04, H5N1) NA (Influenza A virus A/Vietnam/1203/2004 …, UniProt Q6DPL2, stabilised); test: ELISA; settings: both partners purified
[2] = molecular target: T1, N1-CA09-sNAp, stabilized neuraminidase protein of A/California/04/2009 (H1N1) (Influenza A virus A/California/04/2009 …, stabilised); test: cryo-EM structure; settings: both partners purified
T1 chain: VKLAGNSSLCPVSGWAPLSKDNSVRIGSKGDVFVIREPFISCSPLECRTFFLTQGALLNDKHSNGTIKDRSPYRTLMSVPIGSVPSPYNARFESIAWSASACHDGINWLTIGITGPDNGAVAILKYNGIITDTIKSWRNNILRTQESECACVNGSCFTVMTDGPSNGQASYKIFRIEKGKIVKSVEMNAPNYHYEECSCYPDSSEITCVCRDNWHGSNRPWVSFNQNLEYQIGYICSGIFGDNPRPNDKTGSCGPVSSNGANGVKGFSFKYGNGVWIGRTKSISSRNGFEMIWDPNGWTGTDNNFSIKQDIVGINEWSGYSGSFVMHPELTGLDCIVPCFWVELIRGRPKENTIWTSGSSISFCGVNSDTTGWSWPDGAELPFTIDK

B1: NCS.1.1 mAb (IgG) (antibody, V domains shown)
VH: QVQLQESGPRLVKPSETLSLTCSVSGESISSGGYYWTWIRQHPGKGLEWIGNIFDTGSTDYSPSLKTRLTISIDTSKNQFYLRLNSATAADTAVYYCARVGFSLETDRPYYLGLDVWGQGTTVTVSS
VL: DIVMTQSPLSLPVTPGEPASISCRSSQSLLHSNGYTYLDWYLQKPGQSPQLLISFTSNRASGVPDRFSGSGSGTYFTLKISRVEAEDVGVYYCMQAVQTPWTFGQGTKVEIK
notes: copies: 2 + 2
**Q.** Does B1 bind [1]?
**A.** Result: binds

B2: NCS.1.1 Fab (Fab, V domains shown)
VH: B1 VH
VL: B1 VL
**Q.** Which “stoichiometry N” value [2] does the source give for B2 here?
**A.** The value was 4 Fabs per NA tetramer.

B3: NCS.1.3 mAb (IgG) (antibody, V domains shown)
VH: B1 VH with N85T
VL: B1 VL with S10T, S54Y, T56A, T99S
notes: copies: 2 + 2
**Q.** Does B3 bind [1]?
**A.** Result: binds
